In publication PMC7179087 (Biochemistry, 2019) one finds Km, kcat and kcat/Km data, which are given here for five molecules.

Holding throughout (details): adenylation; co-substrate ATP
For data set [1], the system named is CC(C)C[C@H](N)C(=O)O. The experiment in a line: purified protein.
Data set [2] deals with CC(C)[C@H](N)C(=O)O. The experiment in a line: purified protein.
Data set [3] concerns CC[C@H](C)[C@H](N)C(=O)O. Briefly: purified protein.
A further data set has as its system PvfCPf0-1.
In data set [4] the test system is CC(C)C[C@H](N)C(=O)O. Briefly: purified protein. It counts as biochemical, Pseudomonas entomophila.
Data set [5] relates to CC(C)[C@H](N)C(=O)O. Briefly: purified protein. It counts as biochemical, Pseudomonas entomophila.
For another data set, the system named is PvfC-AWH6. Briefly: ATP-[…]PPi exchange, steady-state kinetics. It counts as biochemical, Pseudomonas fluorescens.
The subject of data set [6] is CC[C@H](C)[C@H](N)C(=O)O. Briefly: purified protein. It counts as biochemical, Pseudomonas entomophila.

Take PvfCL48 (Pseudomonas entomophila L48): the Michaelis-Menten constant (Km) with CC(C)C[C@H](N)C(=O)O [1] stood at 7000 ± 3000 µM; in the data set with CC(C)[C@H](N)C(=O)O [2] it was 1200 ± 800 µM; in the data set on CC[C@H](C)[C@H](N)C(=O)O [3], 8000 ± 2000 µM. For the same molecule, the catalytic constant (kcat) in the data set with CC(C)C[C@H](N)C(=O)O [1] is 0.65 ± 0.1 s⁻¹; with CC(C)[C@H](N)C(=O)O [2], 13.1 ± 0.7 s⁻¹; with CC[C@H](C)[C@H](N)C(=O)O [3] it was 1.3 ± 0.2 s⁻¹. Moreover, the specificity constant (kcat/Km) in the data set on CC(C)C[C@H](N)C(=O)O [1] came to 93 M⁻¹ s⁻¹; in the data set on CC(C)[C@H](N)C(=O)O [2], 11000 M⁻¹ s⁻¹; in the data set with CC[C@H](C)[C@H](N)C(=O)O [3] it was 160 M⁻¹ s⁻¹.

For `CC(C)[C@H](N)C(=O)O` [L-Val], in the data set with PvfCPf0-1, the Michaelis constant (Km) stood at 2400 ± 800 µM.

Turning to “PvfCL48 (Pseudomonas entomophila L48; A381S/I467L/L384I/V444M)”, in the data set with CC(C)C[C@H](N)C(=O)O [4], the Michaelis constant (Km) came out at 15000 ± 9000 µM, the kcat amounted to 2.2 ± 0.8 s⁻¹ and the kcat/Km was 150 M⁻¹ s⁻¹. For the same molecule, in the data set on CC(C)[C@H](N)C(=O)O [5], the Michaelis constant (Km) was found to be 1200 ± 700 µM, the catalytic constant (kcat) turned out to be 0.03 ± 0.01 s⁻¹ and the kcat/Km is 25 M⁻¹ s⁻¹.

As for `CC(C)C[C@H](N)C(=O)O` [L-Leu], the Michaelis-Menten constant (Km) with PvfC-AWH6 came to 2100 ± 600 µM.

In the case of “PvfCL48 (Pseudomonas entomophila L48; V444I)”, in the data set with CC(C)C[C@H](N)C(=O)O [4], the Michaelis-Menten constant (Km) amounted to 3000 ± 1000 µM, the kcat is 0.71 ± 0.09 s⁻¹ and the specificity constant (kcat/Km) amounted to 240 M⁻¹ s⁻¹. In the data set on CC(C)[C@H](N)C(=O)O [5], the Km came to 1500 ± 200 µM, the kcat was 10.7 ± 0.5 s⁻¹ and the specificity constant (kcat/Km) was 7100 M⁻¹ s⁻¹. Moreover, in the data set on CC[C@H](C)[C@H](N)C(=O)O [6], the Michaelis constant (Km) worked out at 3700 ± 700 µM, the kcat worked out at 1.2 ± 0.09 s⁻¹ and the kcat/Km came to 320 M⁻¹ s⁻¹.

What is called Km is the substrate concentration at which the rate is half of its maximum. As usually defined, the kcat is the maximal rate divided by the concentration of active sites. In general, kcat/Km refers to the turnover number divided by the Michaelis constant.
